# Biological target: biotin-labelled EZH2 protein (UniProt Q15910)
# Assay: KDM2B peptide array probed with biotin-EZH2 1 ug/ml, SA-HRP/ECL
# biotin-labelled EZH2 protein, sequence (Q15910 whole entry): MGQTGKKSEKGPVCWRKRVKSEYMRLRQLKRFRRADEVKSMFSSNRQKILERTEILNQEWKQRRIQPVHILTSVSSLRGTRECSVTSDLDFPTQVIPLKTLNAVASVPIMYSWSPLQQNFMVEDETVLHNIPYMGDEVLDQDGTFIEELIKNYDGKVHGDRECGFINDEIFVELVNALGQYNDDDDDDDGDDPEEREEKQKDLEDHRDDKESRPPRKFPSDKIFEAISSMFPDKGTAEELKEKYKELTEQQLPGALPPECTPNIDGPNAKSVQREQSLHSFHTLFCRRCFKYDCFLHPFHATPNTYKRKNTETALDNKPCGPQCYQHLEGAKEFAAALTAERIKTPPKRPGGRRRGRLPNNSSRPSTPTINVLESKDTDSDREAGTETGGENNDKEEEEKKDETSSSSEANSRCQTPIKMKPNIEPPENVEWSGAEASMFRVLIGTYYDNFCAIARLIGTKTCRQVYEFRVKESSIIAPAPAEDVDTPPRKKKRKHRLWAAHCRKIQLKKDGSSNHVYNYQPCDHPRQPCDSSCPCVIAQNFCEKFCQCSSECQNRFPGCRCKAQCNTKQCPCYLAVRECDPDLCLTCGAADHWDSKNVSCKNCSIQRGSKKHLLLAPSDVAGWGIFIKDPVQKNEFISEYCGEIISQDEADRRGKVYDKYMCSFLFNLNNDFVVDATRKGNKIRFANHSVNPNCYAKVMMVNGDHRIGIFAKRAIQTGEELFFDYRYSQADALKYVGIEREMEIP
row,Binder,Intensity (%)
1,QPKFRYPFYYEMCWY [peptide 71],0.57%
2,VLERYVYCVTQRSHL [peptide 74],0.25%
3,LAVDYPKTPTGSPAT [peptide 98],0.77%
4,IYEIEDRTRVQPKFR [peptide 69],0.15%
5,CIMRQCIAPVLPHTA [peptide 130],30.8%
